Assay results as given in US20200054719.

System: thrombin-activatable fibrinolysis inhibitor (TAFI), purified

## E-WE thrombin (E. coli derived, non-glycosylated W215A/E217A thrombin)
  activated TAFI, measured as hippuric acid generated from hippuryl-arginine (absorbance at 382 nm): E-WE thrombin is a poor activator of TAFI
